# Patent US20260207798A1, “CYCLIC PEPTIDES AS PET IMAGING AGENTS OF GRANZYME B” (priority 2022, published 2026)
# Bridge positions count the residues as written; N and C are the ends.
# Target: T1, human Granzyme B (human, UniProt P10144 21-247)
# T1 construct: Captured on a Series S Streptavidin chip for SPR; also called hGranzyme B; GzmB
# Assay: SPR, Biacore 8k+, hGranzyme B captured on SA chip, single cycle kinetics, 1:1 model
# Description: The kinetics of test peptide binding to human Granzyme B (hGranzyme B) was determined by SPR. All experiments were performed at 25° C. using the Biacore 8k+ instrument (Cytiva, Marlborough, MA). The Biacore 8k+ Insight Evaluation Software Version 3.0 was used to fit the data with a 1:1 binding model to determine the association rate constant kₐ (M⁻¹s⁻¹, where “M” ~equals molar and “s” ~equals seconds) and the dissociation rate constant kd (s⁻¹). These rate constants were used to calculate the equilibrium dissociation constant. KD (M)=kd/kₐ.
# To measure the binding kinetics of peptides of interest, surfaces were prepared by a capture method to a Series S Streptavidin (SA) chip using a 1×HBS-EP+ running buffer (Cytiva). hGranzyme B was diluted to 10 μg/mL in IX HBS-EP+ and flowed over spot 2 of each flow cell on the chip at a flow rate of 10 ul/min for 20 s to achieve a level of capture of ~1100 RU. An unmodified spot 1 of each flow cell was used as a matrix binding control or reference surface. Binding kinetics were measured using single cycle kinetics at 25° C. by injecting 5 concentrations with 3-fold serial dilutions of test peptides from 0.01 μM to 1 μM. Compound dilutions were performed manually in a running buffer containing 1×HBS-EP+(Cytiva), and a final concentration of 2% DMSO. The interaction analyses over hGranzyme B, were performed using a 120 s association time and a 900 s dissociation time. All experiments were conducted at a flow rate of 50 μL/min with a data collection rate of 10 Hz.
# Peptide dilution series included 2 zero concentration points (no compound) which were averaged and subtracted from the peptide concentration injection as DMSO control responses. Binding data acquired from the reference surface (matrix binding control) were subtracted from the binding data for hGranzyme B surface on the chip to determine specific binding. Next, the association phase data were solvent corrected to account for any signal fluctuation throughout the experiment due to subtle DMSO concentration differences. Corrected response data were analyzed using the Biacore 8k+ Evaluation Software Version 3.0 according to the manufacturer. SPR data for representative compounds of the disclosure are found in Table 8.
# T1 sequence (P10144 21-247 limits assumed): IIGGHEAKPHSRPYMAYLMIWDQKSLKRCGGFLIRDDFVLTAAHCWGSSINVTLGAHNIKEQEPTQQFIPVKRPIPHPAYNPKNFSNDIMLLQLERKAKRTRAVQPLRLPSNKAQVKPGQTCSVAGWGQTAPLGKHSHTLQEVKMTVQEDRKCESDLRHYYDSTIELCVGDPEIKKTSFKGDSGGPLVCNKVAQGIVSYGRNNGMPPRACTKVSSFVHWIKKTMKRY
row,Kd [nM],Binder
1,28.8,{CH2CO}-FNFEDQSVDTWQPCG-NH2 (thioether N-14; SMILES CC(C)[C@@H]1NC(=O)[C@H](CO)NC(=O)[C@H](CCC(N)=O)NC(=O)[C@H](CC(=O)O)NC(=O)[C@H](CCC(=O)O)NC(=O)[C@H](Cc2ccccc2)NC(=O)[C@H](CC(N)=O)NC(=O)[C@H](Cc2ccccc2)NC(=O)CSC[C@@H](C(=O)NCC(N)=O)NC(=O)[C@@H]2CCCN2C(=O)[C@H](CCC(N)=O)NC(=O)[C@H](Cc2c[nH]c3ccccc23)NC(=O)[C@H]([C@@H](C)O)NC(=O)[C@H](CC(=O)O)NC1=O) [Compound 24a]
2,24,{CH2CO}-FNFEDQSAWTWQPCG-NH2 (thioether N-14; SMILES C[C@@H]1NC(=O)[C@H](CO)NC(=O)[C@H](CCC(N)=O)NC(=O)[C@H](CC(=O)O)NC(=O)[C@H](CCC(=O)O)NC(=O)[C@H](Cc2ccccc2)NC(=O)[C@H](CC(N)=O)NC(=O)[C@H](Cc2ccccc2)NC(=O)CSC[C@@H](C(=O)NCC(N)=O)NC(=O)[C@@H]2CCCN2C(=O)[C@H](CCC(N)=O)NC(=O)[C@H](Cc2c[nH]c3ccccc23)NC(=O)[C@H]([C@@H](C)O)NC(=O)[C@H](Cc2c[nH]c3ccccc23)NC1=O) [Compound 35a]
3,30.3,{CH2CO}-FNFEDQSRDTWQPCG-NH2 (thioether N-14; SMILES C[C@@H](O)[C@@H]1NC(=O)[C@H](CC(=O)O)NC(=O)[C@H](CCCNC(=N)N)NC(=O)[C@H](CO)NC(=O)[C@H](CCC(N)=O)NC(=O)[C@H](CC(=O)O)NC(=O)[C@H](CCC(=O)O)NC(=O)[C@H](Cc2ccccc2)NC(=O)[C@H](CC(N)=O)NC(=O)[C@H](Cc2ccccc2)NC(=O)CSC[C@@H](C(=O)NCC(N)=O)NC(=O)[C@@H]2CCCN2C(=O)[C@H](CCC(N)=O)NC(=O)[C@H](Cc2c[nH]c3ccccc23)NC1=O) [Compound 32a]
4,25.9,{CH2CO}-FNFEDQGADTWQPCG-NH2 (thioether N-14; SMILES C[C@@H]1NC(=O)CNC(=O)[C@H](CCC(N)=O)NC(=O)[C@H](CC(=O)O)NC(=O)[C@H](CCC(=O)O)NC(=O)[C@H](Cc2ccccc2)NC(=O)[C@H](CC(N)=O)NC(=O)[C@H](Cc2ccccc2)NC(=O)CSC[C@@H](C(=O)NCC(N)=O)NC(=O)[C@@H]2CCCN2C(=O)[C@H](CCC(N)=O)NC(=O)[C@H](Cc2c[nH]c3ccccc23)NC(=O)[C@H]([C@@H](C)O)NC(=O)[C@H](CC(=O)O)NC1=O) [Compound 30a]
5,10.9,{CH2CO}-FNFEDQAADTWQPCG-NH2 (thioether N-14; SMILES C[C@@H]1NC(=O)[C@H](C)NC(=O)[C@H](CCC(N)=O)NC(=O)[C@H](CC(=O)O)NC(=O)[C@H](CCC(=O)O)NC(=O)[C@H](Cc2ccccc2)NC(=O)[C@H](CC(N)=O)NC(=O)[C@H](Cc2ccccc2)NC(=O)CSC[C@@H](C(=O)NCC(N)=O)NC(=O)[C@@H]2CCCN2C(=O)[C@H](CCC(N)=O)NC(=O)[C@H](Cc2c[nH]c3ccccc23)NC(=O)[C@H]([C@@H](C)O)NC(=O)[C@H](CC(=O)O)NC1=O) [Compound 27a]
6,31.4,{CH2CO}-FNFEDQNADTWQPCG-NH2 (thioether N-14; SMILES C[C@@H]1NC(=O)[C@H](CC(N)=O)NC(=O)[C@H](CCC(N)=O)NC(=O)[C@H](CC(=O)O)NC(=O)[C@H](CCC(=O)O)NC(=O)[C@H](Cc2ccccc2)NC(=O)[C@H](CC(N)=O)NC(=O)[C@H](Cc2ccccc2)NC(=O)CSC[C@@H](C(=O)NCC(N)=O)NC(=O)[C@@H]2CCCN2C(=O)[C@H](CCC(N)=O)NC(=O)[C@H](Cc2c[nH]c3ccccc23)NC(=O)[C@H]([C@@H](C)O)NC(=O)[C@H](CC(=O)O)NC1=O) [Compound 29a]
7,29.3,{CH2CO}-FNFEDQSAKTWQPCG-NH2 (thioether N-14; SMILES C[C@@H]1NC(=O)[C@H](CO)NC(=O)[C@H](CCC(N)=O)NC(=O)[C@H](CC(=O)O)NC(=O)[C@H](CCC(=O)O)NC(=O)[C@H](Cc2ccccc2)NC(=O)[C@H](CC(N)=O)NC(=O)[C@H](Cc2ccccc2)NC(=O)CSC[C@@H](C(=O)NCC(N)=O)NC(=O)[C@@H]2CCCN2C(=O)[C@H](CCC(N)=O)NC(=O)[C@H](Cc2c[nH]c3ccccc23)NC(=O)[C@H]([C@@H](C)O)NC(=O)[C@H](CCCCN)NC1=O) [Compound 34a]
8,18,{CH2CO}-FNFEDQSARTWQPCG-NH2 (thioether N-14; SMILES C[C@@H]1NC(=O)[C@H](CO)NC(=O)[C@H](CCC(N)=O)NC(=O)[C@H](CC(=O)O)NC(=O)[C@H](CCC(=O)O)NC(=O)[C@H](Cc2ccccc2)NC(=O)[C@H](CC(N)=O)NC(=O)[C@H](Cc2ccccc2)NC(=O)CSC[C@@H](C(=O)NCC(N)=O)NC(=O)[C@@H]2CCCN2C(=O)[C@H](CCC(N)=O)NC(=O)[C@H](Cc2c[nH]c3ccccc23)NC(=O)[C@H]([C@@H](C)O)NC(=O)[C@H](CCCNC(=N)N)NC1=O) [Compound 28a]
9,24.2,{CH2CO}-FNFEDQSAYTWQPCG-NH2 (thioether N-14; SMILES C[C@@H]1NC(=O)[C@H](CO)NC(=O)[C@H](CCC(N)=O)NC(=O)[C@H](CC(=O)O)NC(=O)[C@H](CCC(=O)O)NC(=O)[C@H](Cc2ccccc2)NC(=O)[C@H](CC(N)=O)NC(=O)[C@H](Cc2ccccc2)NC(=O)CSC[C@@H](C(=O)NCC(N)=O)NC(=O)[C@@H]2CCCN2C(=O)[C@H](CCC(N)=O)NC(=O)[C@H](Cc2c[nH]c3ccccc23)NC(=O)[C@H]([C@@H](C)O)NC(=O)[C@H](Cc2ccc(O)cc2)NC1=O) [Compound 36a]
10,33.9,{CH2CO}-FNFEDQSKDTWQPCG-NH2 (thioether N-14; SMILES C[C@@H](O)[C@@H]1NC(=O)[C@H](CC(=O)O)NC(=O)[C@H](CCCCN)NC(=O)[C@H](CO)NC(=O)[C@H](CCC(N)=O)NC(=O)[C@H](CC(=O)O)NC(=O)[C@H](CCC(=O)O)NC(=O)[C@H](Cc2ccccc2)NC(=O)[C@H](CC(N)=O)NC(=O)[C@H](Cc2ccccc2)NC(=O)CSC[C@@H](C(=O)NCC(N)=O)NC(=O)[C@@H]2CCCN2C(=O)[C@H](CCC(N)=O)NC(=O)[C@H](Cc2c[nH]c3ccccc23)NC1=O) [Compound 33a]
11,23.3,{CH2CO}-FNFEDQSWDTWQPCG-NH2 (thioether N-14; SMILES C[C@@H](O)[C@@H]1NC(=O)[C@H](CC(=O)O)NC(=O)[C@H](Cc2c[nH]c3ccccc23)NC(=O)[C@H](CO)NC(=O)[C@H](CCC(N)=O)NC(=O)[C@H](CC(=O)O)NC(=O)[C@H](CCC(=O)O)NC(=O)[C@H](Cc2ccccc2)NC(=O)[C@H](CC(N)=O)NC(=O)[C@H](Cc2ccccc2)NC(=O)CSC[C@@H](C(=O)NCC(N)=O)NC(=O)[C@@H]2CCCN2C(=O)[C@H](CCC(N)=O)NC(=O)[C@H](Cc2c[nH]c3ccccc23)NC1=O) [Compound 31a]
